Laboratory results reported in paper PMC3761233.

How the values were obtained:
[1] = target: porcine aminopeptidase N, expressed from a plasmid on BHK-21 or HEK 293T cells (porcine) (UniProt P15145); experiment: flow cytometry on cells
[2] = target: endogenous porcine aminopeptidase N on ST cells and IPI-21 cells (porcine (endogenous in ST and IPI-21 cells)) (UniProt P15145); experiment: flow cytometry on cells

With “soluble TGEV spike protein (S1 subunit fused to the human IgG Fc portion) (from UniProt P07946 29-1447) (Fc fusion)” the percent of cells bound (BHK-21 cells expressing APN, after neuraminidase) (% of the cells) [1] was > 60, the percent of cells bound (ST cells, after neuraminidase) (% of the cells) [2] was > 60 and the percent of cells bound (ST cells, without neuraminidase) (% of the cells) [2] was 50.
